Target: ICAM-1 (human) (UniProt P05362)
Assay: cell-based or functional assay

Sequence of ICAM-1 (human) (P05362 28-532): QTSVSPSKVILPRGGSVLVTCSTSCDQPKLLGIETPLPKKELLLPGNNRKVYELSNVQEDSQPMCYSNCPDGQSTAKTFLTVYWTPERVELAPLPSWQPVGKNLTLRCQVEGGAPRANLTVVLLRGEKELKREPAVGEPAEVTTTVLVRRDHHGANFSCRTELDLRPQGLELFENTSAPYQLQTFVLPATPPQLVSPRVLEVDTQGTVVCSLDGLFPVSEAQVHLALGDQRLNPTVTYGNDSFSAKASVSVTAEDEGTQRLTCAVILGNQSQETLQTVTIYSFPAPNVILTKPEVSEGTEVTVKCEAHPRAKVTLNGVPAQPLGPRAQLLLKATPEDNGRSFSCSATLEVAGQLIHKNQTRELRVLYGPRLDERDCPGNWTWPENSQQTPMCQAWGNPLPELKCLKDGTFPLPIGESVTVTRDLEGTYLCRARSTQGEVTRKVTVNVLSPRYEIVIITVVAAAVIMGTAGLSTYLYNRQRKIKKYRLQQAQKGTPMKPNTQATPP

inhibition of tumor lysis by peptide specific CTLs with anti-CD11a (LFA-1) MAb, tumor cells after IFN-gamma exposure: 60 to 86%
Substance: CD11a (LFA-1) (from UniProt P20701 26-1170) (receptor)

From patent US20080085266A1
